# Experimental data: US20170022281A1 (AbbVie / Abbott, published 2017)
# T1: human PRLR on cells (human, UniProt P16471 25-622)
# T1 sequence: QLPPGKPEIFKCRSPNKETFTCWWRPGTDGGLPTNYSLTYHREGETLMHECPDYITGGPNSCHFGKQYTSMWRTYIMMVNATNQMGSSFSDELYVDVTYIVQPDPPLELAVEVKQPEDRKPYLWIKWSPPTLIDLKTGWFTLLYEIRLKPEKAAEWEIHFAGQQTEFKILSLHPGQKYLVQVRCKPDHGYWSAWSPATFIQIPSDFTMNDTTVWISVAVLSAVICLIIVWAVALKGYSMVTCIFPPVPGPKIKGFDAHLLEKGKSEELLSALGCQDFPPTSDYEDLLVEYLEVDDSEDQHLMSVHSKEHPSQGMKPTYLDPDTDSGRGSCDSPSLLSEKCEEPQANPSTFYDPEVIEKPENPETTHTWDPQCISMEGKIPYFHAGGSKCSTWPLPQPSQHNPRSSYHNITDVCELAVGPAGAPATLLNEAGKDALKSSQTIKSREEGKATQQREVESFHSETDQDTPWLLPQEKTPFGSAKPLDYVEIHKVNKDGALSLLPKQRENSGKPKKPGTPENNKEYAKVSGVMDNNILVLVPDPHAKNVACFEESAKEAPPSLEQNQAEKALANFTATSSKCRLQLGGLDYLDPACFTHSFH
# T2: mouse PRLR on Baf3-mPRLR cells (mouse, UniProt Q08501 20-608)
# T2 sequence (looked up): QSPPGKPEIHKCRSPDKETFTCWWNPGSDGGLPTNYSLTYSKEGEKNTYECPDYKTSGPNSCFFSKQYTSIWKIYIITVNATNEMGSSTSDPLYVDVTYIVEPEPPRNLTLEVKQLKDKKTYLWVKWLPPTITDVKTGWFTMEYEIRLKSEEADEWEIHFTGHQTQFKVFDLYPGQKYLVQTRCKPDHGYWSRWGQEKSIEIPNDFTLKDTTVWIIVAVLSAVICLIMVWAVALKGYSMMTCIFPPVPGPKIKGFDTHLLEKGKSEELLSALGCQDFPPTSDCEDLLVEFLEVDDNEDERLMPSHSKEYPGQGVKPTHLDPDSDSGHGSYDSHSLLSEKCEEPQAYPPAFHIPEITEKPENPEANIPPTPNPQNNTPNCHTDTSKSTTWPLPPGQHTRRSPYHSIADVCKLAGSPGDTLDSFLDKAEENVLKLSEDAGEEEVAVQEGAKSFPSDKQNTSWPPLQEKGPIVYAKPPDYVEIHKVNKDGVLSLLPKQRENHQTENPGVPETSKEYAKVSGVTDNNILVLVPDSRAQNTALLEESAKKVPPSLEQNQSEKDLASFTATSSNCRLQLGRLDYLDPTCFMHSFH
# T3: human PRLR (Biacore antigen) (human, UniProt P16471 25-234, limits assumed)
# T3 construct: The construct injected over captured antibody is not described (a soluble form is likely); also called huPRLR
# T3 sequence: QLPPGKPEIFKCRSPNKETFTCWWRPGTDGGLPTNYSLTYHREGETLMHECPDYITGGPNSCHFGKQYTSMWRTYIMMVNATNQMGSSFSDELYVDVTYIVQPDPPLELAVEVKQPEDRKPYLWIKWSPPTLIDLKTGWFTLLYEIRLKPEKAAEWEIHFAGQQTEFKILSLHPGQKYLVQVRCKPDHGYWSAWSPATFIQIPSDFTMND
# T4: cyno PRLR (Biacore antigen) (cyno, UniProt A0A2K5WXK1 25-234)
# T4 construct: also called cyPRLR
# T4 sequence: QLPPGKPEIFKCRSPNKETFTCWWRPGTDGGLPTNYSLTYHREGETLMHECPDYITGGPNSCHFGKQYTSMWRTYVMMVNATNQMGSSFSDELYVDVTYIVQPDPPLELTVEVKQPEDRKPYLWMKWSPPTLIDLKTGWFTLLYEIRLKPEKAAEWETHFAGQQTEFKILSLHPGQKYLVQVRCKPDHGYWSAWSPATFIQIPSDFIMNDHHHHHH
# T5: murine PRLR (Biacore antigen) (murine, UniProt Q08501 20-229, limits assumed)
# T5 construct: also called muPRLR
# T5 sequence (looked up): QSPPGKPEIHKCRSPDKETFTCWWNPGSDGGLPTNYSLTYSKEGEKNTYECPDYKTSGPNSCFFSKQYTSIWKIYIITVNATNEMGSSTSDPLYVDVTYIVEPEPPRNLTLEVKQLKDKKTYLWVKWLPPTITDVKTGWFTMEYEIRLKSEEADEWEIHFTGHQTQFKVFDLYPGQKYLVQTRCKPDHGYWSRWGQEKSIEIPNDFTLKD
# T6: human PRLR ECD-Fc fusion protein (human, UniProt P16471 25-233)
# T6 construct: not shown: Fc region (captured by goat anti-human Fc)
# T6 sequence: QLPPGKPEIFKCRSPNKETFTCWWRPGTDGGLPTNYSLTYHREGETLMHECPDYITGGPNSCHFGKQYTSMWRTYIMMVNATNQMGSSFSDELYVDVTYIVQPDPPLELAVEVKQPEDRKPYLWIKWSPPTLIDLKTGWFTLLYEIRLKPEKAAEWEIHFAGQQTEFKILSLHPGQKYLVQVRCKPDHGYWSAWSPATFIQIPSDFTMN
# T7: cyno PRLR ECD-his6 protein (cyno)
# T7 chain: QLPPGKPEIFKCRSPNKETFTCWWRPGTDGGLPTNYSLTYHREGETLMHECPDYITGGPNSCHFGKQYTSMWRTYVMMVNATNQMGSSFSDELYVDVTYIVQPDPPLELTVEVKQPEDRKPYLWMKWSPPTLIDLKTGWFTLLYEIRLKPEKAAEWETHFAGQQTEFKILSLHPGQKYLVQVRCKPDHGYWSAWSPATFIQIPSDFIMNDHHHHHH
# Tests used:
# human PRLR on cells = target: T1, human PRLR on cells; test: cell-based or functional assay
# [1] = target: T2, mouse PRLR on Baf3-mPRLR cells; test: cell-based or functional assay
# [2] = target: cyno PRLR on Baf3-cyPRLR cells (cyno); test: cell-based or functional assay
# [3] = target: T3, human PRLR (Biacore antigen); test: SPR Biacore
# Outline: (§1)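 Association rate, dissociation rate and dissociation constant were measured by surface plasmon resonance on a Biacore instrument. PRLR antigen was tested at 600 nM, 66.67 nM and 7.41 nM, a 3-point, 9-fold dilution series. Constants came from a 1:1 binding model fit (local Rmax, mass-transport term included) in Biacore T200 Evaluation Software.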
# [4] = target: T4, cyno PRLR (Biacore antigen); test: SPR Biacore
# Outline: as §1
# [5] = target: T5, murine PRLR (Biacore antigen); test: SPR Biacore
# Outline: as §1
# [6] = target: T6, human PRLR ECD-Fc fusion protein; test: ELISA on ECD
# Method: (§2) Plates were blocked for 1 hour with Superblock (Pierce) and washed (3×) with wash buffer (lx PBS (pH 7.4), 0.05% Tween 20). ECD proteins were bound to the appropriate antibody (1 hour) in binding buffer (wash buffer plus 10% Superblock), washed (3×, wash buffer), and then incubated with serial dilutions of antibodies (1 hour) in binding buffer. After washing (3×, wash buffer), secondary antibodies conjugated to HRP were bound (1 hour) in binding buffer, washed (3×, wash buffer), and incubated with TMB substrate (Pierce) to develop signal for 3-5 minutes, stopped with 2N H₂SO₄ and scanned at […]. Curves were fit with GraphPad 5 (Prizm) and EC50's were determined with curve fitting function of GraphPad 5.
# [7] = target: T7, cyno PRLR ECD-his6 protein; test: ELISA on ECD
# Method: as §2
Binder,Baf3-hPRLR proliferation IC50 (human PRLR on cells),Baf3-mPRLR proliferation IC50 [1],Baf3-cyPRLR proliferation IC50 [2],Kd [3],koff [3],kon [3],Kd [4],koff [4],kon [4],Kd [5],koff [5],kon [5],EC50 [6],EC50 [7]
"Ab35 (antibody, human IgG1, kappa, humanized from Ab7; G1; also called Ab4 HC.1 and Ab4 LC.1) heavy: not shown light: DIVMTQTPLSLSVTPGQPASISCRSSQSLVHSNGNTYLHWYLQKPGQSPQLLIYKVSNRFSGVPDRFSGSGSGTDFTLKISRVEAEDVGVYYCSQSTHVPFTFGGGTKVEIKRTVAAPSVFIFPPSDEQLKSGTASVVCLLNNFYPREAKVQWKVDNALQSGNSQESVTEQDSKDSTYSLSSTLTLSKADYEKHKVYACEVTHQGLSSPVTKSFNRGEC",0.38 µg/mL,> 30 µg/mL,0.65 µg/mL,13.3 nM,0.0016 s⁻¹,120000 M⁻¹ s⁻¹,13.5 nM,0.00142 s⁻¹,105000 M⁻¹ s⁻¹,1580 nM,0.0785 s⁻¹,49800 M⁻¹ s⁻¹,2.5 nM,0.32 nM
"Ab14 (antibody, human IgG1, kappa, V domains shown, humanized from Ab6; G1; also called Ab1 HC.1 & Ab1 LC.1) VH: EVQLVQSGAEVKKPGSSVKVSCKASGYTFTTYWMHWVRQAPGQGLEWMGEIDPSDSYSNYNQKFKDRVTITADKSTSTAYMELSSLRSEDTAVYYCARNGGLGPAWFSYWGQGTLVTVSS VL: DIQMTQSPSSVSASVGDRVTITCKASQYVGTAVAWYQQKPGKAPKLLIYSASNRYTGVPSRFSGSGSGTDFTLTISSLQPEDFATYYCQQYSSYPWTFGGGTKVEIKR",0.3 µg/mL,> 30 µg/mL,1.15 µg/mL,4.16 nM,0.00458 s⁻¹,1.1e+06 M⁻¹ s⁻¹,,,,,,,0.0329 nM,0.031 nM
"Ab16 (antibody, human IgG1, kappa, V domains shown, humanized from Ab6; G1; also called Ab1 HC.1 and Ab1 LC.2) VH: EVQLVQSGAEVKKPGSSVKVSCKASGYTFTTYWMHWVRQAPGQGLEWMGEIDPSDSYSNYNQKFKDRVTITADKSTSTAYMELSSLRSEDTAVYYCARNGGLGPAWFSYWGQGTLVTVSS VL: EIVMTQSPATLSVSPGERATLSCKASQYVGTAVAWYQQKPGQAPRLLIYSASNRYTGIPARFSGSGSGTEFTLTISSLQSEDFAVYYCQQYSSYPWTFGGGTKVEIKR",0.46 µg/mL,> 30 µg/mL,1.73 µg/mL,4.05 nM,0.00562 s⁻¹,1.39e+06 M⁻¹ s⁻¹,,,,,,,0.0641 nM,0.0671 nM
"Ab20 (antibody, human IgG1, kappa, V domains shown, humanized from Ab6; G1; also called Ab1 HC.1a and Ab1 LC.2) VH: EVQLVQSGAEVKKPGSSVKVSCKASGYTFTTYWMHWVRQAPGQGLEWIGEIDPSDSYSNYNQKFKDRATLTVDKSTSTAYMELSSLRSEDTAVYYCARNGGLGPAWFSYWGQGTLVTVSS VL: EIVMTQSPATLSVSPGERATLSCKASQYVGTAVAWYQQKPGQAPRLLIYSASNRYTGIPARFSGSGSGTEFTLTISSLQSEDFAVYYCQQYSSYPWTFGGGTKVEIKR",0.2 µg/mL,> 30 µg/mL,0.5 µg/mL,2 nM,0.00208 s⁻¹,1.04e+06 M⁻¹ s⁻¹,,,,620 nM,,,0.0836 nM,0.0711 nM
"Ab15 (antibody, human IgG1, kappa, V domains shown, humanized from Ab6; G1; also called Ab1 HC.1 and Ab1 LC.1a) VH: EVQLVQSGAEVKKPGSSVKVSCKASGYTFTTYWMHWVRQAPGQGLEWMGEIDPSDSYSNYNQKFKDRVTITADKSTSTAYMELSSLRSEDTAVYYCARNGGLGPAWFSYWGQGTLVTVSS VL: DIQMTQSPSSVSASVGDRVTITCKASQYVGTAVAWYQQKPGKSPKLLIYSASNRYTGVPSRFSDSGSGTDFTLTISSLQPEDFATYFCQQYSSYPWTFGGGTKVEIKR",0.13 µg/mL,> 30 µg/mL,0.19 µg/mL,0.837 nM,0.000972 s⁻¹,1.16e+06 M⁻¹ s⁻¹,,,,,,,0.0781 nM,0.0551 nM
"Ab17 (antibody, human IgG1, kappa, V domains shown, humanized from Ab6; G1; also called Ab1 HC.1 and Ab1 LC.2a) VH: EVQLVQSGAEVKKPGSSVKVSCKASGYTFTTYWMHWVRQAPGQGLEWMGEIDPSDSYSNYNQKFKDRVTITADKSTSTAYMELSSLRSEDTAVYYCARNGGLGPAWFSYWGQGTLVTVSS VL: EIVMTQSPATLSVSPGERATLSCKASQYVGTAVAWYQQKPGQSPRLLIYSASNRYTGVPARFSDSGSGTEFTLTISSLQSEDFAVYFCQQYSSYPWTFGGGTKVEIKR",0.14 µg/mL,> 30 µg/mL,0.27 µg/mL,1.06 nM,0.00132 s⁻¹,1.25e+06 M⁻¹ s⁻¹,,,,,,,0.0766 nM,0.0788 nM
"Ab18 (antibody, human IgG1, kappa, V domains shown, humanized from Ab6; G1; also called Ab1 HC.1a and Ab1 LC.1) VH: EVQLVQSGAEVKKPGSSVKVSCKASGYTFTTYWMHWVRQAPGQGLEWIGEIDPSDSYSNYNQKFKDRATLTVDKSTSTAYMELSSLRSEDTAVYYCARNGGLGPAWFSYWGQGTLVTVSS VL: DIQMTQSPSSVSASVGDRVTITCKASQYVGTAVAWYQQKPGKAPKLLIYSASNRYTGVPSRFSGSGSGTDFTLTISSLQPEDFATYYCQQYSSYPWTFGGGTKVEIKR",0.15 µg/mL,> 30 µg/mL,0.4 µg/mL,1.62 nM,0.00171 s⁻¹,1.06e+06 M⁻¹ s⁻¹,,,,,,,0.0675 nM,0.111 nM
